Experimental findings from the DeepSol protein solubility set are described below.

The data set is described as follows: soluble on expression in E. coli; label from the status in PepcDB or PDB records.
For “PFKESQARGLLQDNMANSYNGGDFEDGLLNLSKEVFPTDKYLYQDGQFLDKKTINAYLNPKYTKREIDKMSEKDKKDKKANENLGLNPSHEGETNPEKIAEKSPAYLSNILEQDFYGGGDTKGKNIKGMTIGLAMNSVYYYKKEKDGPTFSKKLDDSEVKKQGKQMASEILSRLRENDDLKDIPIHFAIYKQSSEDSITPGEFITQATAEKSQTKLNEWHNINEKSALLPSSTAADYDENLNNNFKQFNDNLQSYFSNFTQAVGKVKFVDKKPQRLVVDLPIDYYGQAETIGITQYVTEQANKYFDKIDNYEIRIKDGNQPRALISKTKDDKEPQVHIYSN”, the “soluble on expression in E. coli” value was “soluble”.
The result for “MGHHHHHHSHMIGSGLSDLFDLTSGVGTLSGSYVAPKAVWLPAMKAKGLEISGTFTRQVGSISMDLQLTNKALQVMTDFAIQFNRNSFGLAPAAPLQVHAPLSPNQTVEISLPLSTVGSVMKMEPLNNLQVAVKNNIDVFYFSTLYPLHILFVEDGKMDRQMFLATWKDIPNENEAQFQIRDCPLNAEAASSKLQSSNIFTVAKRNVEGQDMLYQSLKLTNGIWVLAELRIQPGNPSCTDLELSLKCRAPEVSQHVYQAYETILKN” reads “soluble”; that for “MSAVVITDRHRRILKVNPAFTSISGFSANEVIGKNTFDVLLSESENIDKRLTTWKQVEELGAWQGELDVLSKNKRKLSLLVRIQSVKSKRKATQYYIISYIDITKR”, “not soluble”; that for “SLRAEKSDDPLYPLTIIHLNDFHARFEETNTVSTRCKPDEGERCIGGYGRVVSRVKSLQQEYADRNPIYLNAGDSFQGTIWYTLLRWNVTAYFLNLLPADAMTLGNHEFDHGVEGLVPFLGAIDSPMLVANIDDREEPTLQGKYQRNVVLERGGRKIGIIGVIHHATDTLSMTDRVRFLDEVQCINQEATALKQLGVDIIVVLSHCGFTIDQQIARECPDVDVVVGGHSHTLLHTGTVADWPDVPAGSFPFVVEQAAGRRVLIVQAGSFTKYLGHLVVYFDERGEAVRWEGNTEYLDESFPKDEQIERELVPWRTQVDALAVRPVGVSRVFLSKPACRTGECNFGSFVADAFVDYYVGRGEAEHEWTYAAIGITNDGGLRTSLAPGTLTYEDLVTAIPYENTVDTFELRGQYLLDALEYSASRYDTADVLQFAGLRVVFNLTRPALQRVQRVDVRCRVCRIPRYEPLDVNATYRIAIAAWIGSGGNGYTMFGQHRTNVRVGPLDIDVFERYVAKMSPIMQGTDGRMVFVR”, “not soluble”.
The entry for “MGSDKIHHHHHHMPGRAGGCTRNTGAPVNRQDRAHAFLQRALEAQAALPVDHGLMRDLFAGTGDDSRLSLSEVGELVSRDPSLAVRILSLANSAYYGLQAEVTTVGRAVTVLGMREVRNLVLALGFSSVARMHPLPDRFCTAGYWLHQLRVAAFCRIIAAGTEDLDPEMLYTAGLLHDIGKLFIAALAPDDWLGIRRLARQESLPDCKAEERWWGLDHALAGARVLAYWQLPAALTEPISWHHGPHFADAAHARGAGAVQLADALLLAFERGTPPPAAALQLLKEYTADAGRLQMALEAQFAGERIGQLAALLG” is “not soluble”; for “MELKDDDFEKISELGAGNGGVVFKVSHKPSGLVMARKLIHLEIKPAIRNQIIRELQVLHECNSPYIVGFYGAFYSDGEISICMEHMDGGSLDQVLKKAGRIPEQILGKVSIAVIKGLTYLREKHKIMHRDVKPSNILVNSRGEIKLCDFGVSGQLIDSMANSFVGTRSYMSPERLQGTHYSVQSDIWSMGLSLVEMAVGRYPIPPPDAKELELMFGCQVEGDAAETPPRPRTPGRPLSSYGMDSRPPMAIFELLDYIVNEPPPKLPSGVFSLEFQDFVNKCLIKNPAERADLKQLMVHAFIKRSDAEEVDFAGWLCSTIGLNQPSTPTHAAGVLEHHHHHH” it is “soluble”.
Consider “MSLKIKCILIEDEISNEKELYFILRRYDDIEIVGMVQNTDEGIDLVKKLRPQAVFLDINVPNFNGIKLAEEIKDVDSTIAVIFVTAYDKYAVAAFEIKALDYILKPFSIARIEKAVERLKEYINVNKSMKEKLFELICEFNNMERKYIINKIPCENKGKIVLVDVNDIYFFYIKSEKTYVKLNDIIYVTSSTLNDMEKKTGFFRAHRSYLVNLNKIFEIYSWFNGTYKLIMSDYRKSEIPVSRGNVRKLKEIINIEGHHHHHH”, for which the “soluble on expression in E. coli” value is “not soluble”.
“MVSVSVVIATLKPRDEIEAIQCLEDQTFDDFEVIVCDKSPVTRARNEGIRQSSSDKIVFLDDDSRPQPGYLEKANDVLETEAAYAGRTIHPVDDVFARHFTAHYDWGGDPCYVDHFWGCNMGVHRDVFKTVGGWDEEMGWGHEEKELARRVRSEFDIRYDPELVVDHPYASSITDYWKKQYKLETKSPYYWSKCNVSRADQLKNIFCETFDPLNYVRITPVATMIEAGSTVAKTAGRLRGFLDHTHHEEGRGGVPDIDRPSQSPERSGLEHHHHHH”: the “soluble on expression in E. coli” value is on record as “not soluble”.
For the sequence “MGSDKIHHHHHHMSQILLIHSSVHGYTQKICEYLQRQLIEQDQLVTVASLAEAPDLALFDKVYIGASIRHGKHRPALYQFIEDHRAELDNKPSGFFSVSLVARKPNKNTPQTNSYMQQFLSQSPWQPKLLQVFGGNLDYQGYGAMDRNIIRFIMWLTKGPTDPNTKVEFTDWQKVDEFAQQIIEA”, the “soluble on expression in E. coli” value is reported as “not soluble”.
The entry for “MLTSEIAACCKKLRLSRNIVEMSGKIQADNHQEYLLKLLKSEIIHREKTRNAKLLRKAGFYTIKTFESFRFDEVTLPGDITPEYLKECEFVKNKTNIVMYGNVGTGKTHLSIALGVEACKRGYEVRFFRTSALVNKLAEEKRVGTLSSFLKKLNKAELLICDEWRYVPLDRIGAQLLFEVISERYENKAVIINTNIEFSRWVNIFYDEQMTGAIVDRILHHCHLLLFFGQSNRMRESRLNT” is “not soluble”.
In the case of “MEYTSIADTGIEASRIGLGTWAIGGTMWGGTDEKTSIETIRAALDQGITLIDTAPAYGFGQSEEIVGKAIKEYMKRDQVILATKTALDWKNNQLFRHANRARIVEEVENSLKRLQTDYIDLYQVHWPDPLVPIEETAEVMKELYDAGKIRAIGVSNFSIEQMDTFRAVAPLHTIQPPYNLFEREMEESVLPYAKDNKITTLLYGSLCRGLLTGKMTEEYTFEGDDLRNHDPKFQKPRFKEYLSAVNQLDKLAKTRYGKSVIHLAVRWILDQPGADIALWGARKPGQLEALSEITGWTLNSEDQKDINTILENTISDPVGPEFMAPPTREEIPG”, the “soluble on expression in E. coli” value is recorded as “soluble”.
As for “MGSDKIHHHHHHMVYPVRIDTIRYDRKFSFVVFVEDIQSSHQIIDNIMDIGDEIGYPYEVIVSAKDQVTDDYYSDEIKVVGTGLNRRSDGIQRSLKSSTGNYFVIFDPNIRYSLSYADLLYGYAETGSSEVLVSEILGFQTDVLRSVGGWRDLSYGEDIDLLVRVIDNYGVITYPFYGLKQIDLTELIKSTDSIRSGKIKKLRDLIISCNFKYQDIKTIAKILDKSSRISRLLYLSKILSNFARIRPYERPKNNYLTIMERIMESILAKEFLKITTVDFKPSLAISTKTAEYLAGESPLWRITEENGNFVREKI”, the “soluble on expression in E. coli” value is given as “not soluble”.
Regarding “MGSDKIHHHHHHMNAAQAGLYVDQLTVTWRNGHTALRDASFSVPRGSIAALVGVNGSGKSTLFKALMGFVRVGHGEIAILGQPVNRALRQNLVAYVPQSEEMDWSFPVLVEDVVMMGRYGHMGWLRRAKPRDREIVDAALARVGMSEFRHRQIGELSGGQKKRVFLARAIAQQGQVILLDEPFTGVDVQTEARIISLLRELRDEGCTMLVSTHNLGSVSEFCDYTVMVKGTVLASGPTETTFTAENLERAFSGVLRHVALTGGEAQVITDDERPFISRRAAGGPR”, the “soluble on expression in E. coli” value is “not soluble”.
“MGHHHHHHSHMRISPGQINQVRPKLPLLKILHAAGAQGEMFTVKEVMHYLGQYIMVKQLYDQQEQHMVYCGGDLLGELLGRQSFSVKDPSPLYDMLRKNLVTLATATT”: the “soluble on expression in E. coli” value is given as “not soluble”.
As for “MYVSSPTLTDKVSKMICQDILTGELKPGQKLVVAELKEKYNVGASPIREALVQLSWSKYVKLAPQKGCWVAPVCKHELNDLYESLRMTASFLLKKAIMTGDENWELDVLTSYHKLSRVNLDQGFCWREWEERHYHFLEALLEGANSHNLFTFFRDILNQIKRYHYFAMQVLGTNNQGHCNIDEQEMIMKLSLSKNSDDAVQFLDRYLLKSLQCVETAIDNPL”, the “soluble on expression in E. coli” value is reported as “soluble”.
The result for “MGSDKIHHHHHHYATVEPLHINRFDKDLFRLIDTGDTTLQPELIKQYPEMLDIIGKGILNLQTIETPGFFEKMRNYYSEPTLKGLYRDAITQYDSVEDIEKSLGYGFAYLKENFPSMQIPAIYMHVSGFNQNVLVGDSLLSLSIDKYMGKDYPLYQDFFYDSQKLKMQRGLVVPDYLAGWLMSEYPFAGKENVLLDRMIYEGKIKYLLSQALGVPDAAELMGYTEQAYNWCKDNEGTIWKAIIERKHLYTPDQLTTSQYFEDTPTIFPGNDAPGNIGTWIGWQIINQYIKETGSTPEALMQNNDAQEILTASKYKPL” reads “not soluble”.
The result for “GSSRGIPPKIEALPSDISIDEGKVLTVACAFTGEPTPEVTWSCGGRKIHSQEQGRFHIENTDDLTTLIIMDVQKQDGGLYTLSLGNEFGSDSATVNIHIRSI” reads “soluble”.
Turning to “YKDSPKVLGQTYSSLLIDFTEGFHPNDLGIIVETIKEGGIIIAFSPPIEQWENLKSRWHEELVSEPYTVEDVTGRFFARFMRRTLQAEGIIIFD”, the “soluble on expression in E. coli” value is recorded as “not soluble”.
On to “MSELIIYNGKVYTEDGKIDNGYIHVKDGQIVAIGEVDDKAAIDNDTTNKIQVIDAKGHHVLPGFIDIHIHGGYGQDAMDGSYDGLKYLSENLLSEGTTSYLATTMTQSTDKIDNALTNIAKYEAEQDVHNAAEIVGIHLEGPFISENKVGAQHPQYVVRPFIDKIKHFQETANGLIKIMTFAPEVEGAKEALETYKDDIIFSIGHTVATYEEAVEAVERGAKHVTHLYNAATPFQHREPGVFGAAWLNDALHTEMIVDGTHSHPASVAIAYRMKGNERFYLITDAMRAKGMPEGEYDLGGQKVTVQSQQARLANGALAGSILKMNHGLRNLISFTGDTLDHLWRVTSLNQAIALGIDDRKGSIKVNKDADLVILDDDMNVKSTIKQGKVHTFS”, for which the “soluble on expression in E. coli” value is listed as “not soluble”.
“MSLSISEKPLSELLRPKDFEDFVGQDHIFGNKGILRRTLKTGNMFSSILYGPPGSGKTSVFSLLKRYFNGEVVYLSSTVHGVSEIKNVLKRGEQLRKYGKKLLLFLDEIHRLNKNQQMVLVSHVERGDIVLVATTTENPSFVIVPALLSRCRILYFKKLSDEDLMKILKKATEVLNIDLEESVEKAIVRHSEGDARKLLNTLEIVHQAFKNKRVTLEDLETLLGNVSGYTKESHYDFASAFIKSMRGSDPNAAVYYLVKMIEMGEDPRFIARRMIIFASEDVGLADPNALHIAVSTSIAVEHVGLPECLMNLVECAVYLSLAPKSNSVYLAMKKVQELPVEDVPLFLRNPVTEEMKKRGYGEGYLYPHDFGGFVKTNYLPEKLKNEVIFQPKRVGFEEELFERLRKLWPEKYGGESMAEVRKELEYKGKKIRIVKGDITREEVDAIVNAANEYLKHGGGVAGAIVRAGGSVIQEESDRIVQERGRVPTGEAVVTSAGKLKAKYVIHTVGPVWRGGSHGEDELLYKAVYNALLRAHELKLKSISMPAISTGIFGFPKERAVGIFSKAIRDFIDQHPDTTLEEIRICNIDEETTKIFEEKFSEGHHHHHH”: the “soluble on expression in E. coli” value is listed as “soluble”.
The result for “MVKMLTMDKILSKKIKVNWLGGVFWLLPNLLDLFSASKRKASVRPYQSLLELVQENFLNRYDLVHFSFNGDHDFFHFNDLQAIRSFNFTIEEEQLGAMQPDEVLLFEPVDRVTVELDQKGLSLIHSGKAFCASANYFKHWLKRVPQQDKVTLVWRKSGFELKQ” reads “soluble”; that for “MSRDGQNGTATFYFDEPQALVGEVRQDITGMYLLDDEGELATREVKAKFINGQPAGLEAVYLMRSPEEWDRFMRFMQRYAEANGLGFTEALEHHHHHH”, “not soluble”.
